Values quoted from earlier work, collected in PMC7411019.

Target: cTnI-binding peptide

Chain of Cardiac troponin I 114-144 (P19429 114-144): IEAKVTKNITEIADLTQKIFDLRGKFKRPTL

Kd: 0.27 nM
Substance: Cardiac troponin I 114-144 (from UniProt P19429)
